From US20080219974A1

Molecular target: human V158 FcγRIIIa (human) (UniProt P08637)
Experiment: not described in this filing

Chain of human V158 FcγRIIIa (human) (P08637 17-208 F176V limits assumed): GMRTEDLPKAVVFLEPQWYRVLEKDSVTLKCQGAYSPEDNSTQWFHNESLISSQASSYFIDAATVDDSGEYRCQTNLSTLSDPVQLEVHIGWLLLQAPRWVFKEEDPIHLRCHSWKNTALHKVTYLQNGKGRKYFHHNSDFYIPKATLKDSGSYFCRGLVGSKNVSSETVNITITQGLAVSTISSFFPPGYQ

Kd: 240 nM
Substance: human WT IgG1 (antibody)
